Results taken from IntAct's records for PubMed 20890306.

B1: FAS-associated death domain protein (Homo sapiens), Q13158 (parent)
chain: MDPFLVLLHSVSSSLSSSELTELKFLCLGRVGKRKLERVQSGLDLFSMLLEQNDLEPGHTELLRELLASLRRHDLLRRVDDFEAGAAAGAAPGEEDLCAAFNVICDNVGKDWRRLARQLKVSDTKIDSIEDRYPRNLTERVRESLRIWKNTEKENATVAHLVGALRSCQMNLVADLVQEVQQARDLQNRSGAMSPMSWNSDASTSEAS

Variants of: B1
Details: with plk1_human PLK1, P53350
Sequence of plk1_human PLK1, P53350 (P53350 whole entry): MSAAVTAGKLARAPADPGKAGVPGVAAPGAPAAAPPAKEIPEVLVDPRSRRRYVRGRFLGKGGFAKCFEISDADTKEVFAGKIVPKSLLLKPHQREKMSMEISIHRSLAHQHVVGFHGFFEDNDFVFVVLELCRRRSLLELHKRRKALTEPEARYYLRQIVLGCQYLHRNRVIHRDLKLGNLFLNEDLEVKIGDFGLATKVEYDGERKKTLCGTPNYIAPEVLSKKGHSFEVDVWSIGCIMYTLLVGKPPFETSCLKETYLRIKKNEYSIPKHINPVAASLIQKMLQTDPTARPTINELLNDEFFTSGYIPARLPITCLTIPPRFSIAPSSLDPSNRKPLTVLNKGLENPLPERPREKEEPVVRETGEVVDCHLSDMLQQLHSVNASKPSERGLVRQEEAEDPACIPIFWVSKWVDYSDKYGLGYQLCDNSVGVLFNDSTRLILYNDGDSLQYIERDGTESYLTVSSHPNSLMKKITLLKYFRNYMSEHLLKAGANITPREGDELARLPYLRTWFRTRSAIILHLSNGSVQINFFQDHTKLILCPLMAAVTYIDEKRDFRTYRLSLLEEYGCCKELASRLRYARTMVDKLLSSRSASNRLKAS

| Variant | effect of a mutation on the interaction |
| --- | --- |
| S194A | disrupting interaction |
